Reference: patent publication US20230174630A1 (UNIVERSITY OF BRITISH COLUMBIA, published 2023)

Biological target: T1, endogenous wild type TDP-43 of HEK293 cells (human, UniProt Q13148 1-414)
T1 construct: whole, on cells; Intracellular endogenous protein: nuclear in unstressed cells; also called endogenous, nuclear WT TDP-43; normal nuclear TDP-43
Experiment: co-localization immunocytochemistry, intrabody expressed in HEK293 cells

T1 sequence (Q13148 whole entry): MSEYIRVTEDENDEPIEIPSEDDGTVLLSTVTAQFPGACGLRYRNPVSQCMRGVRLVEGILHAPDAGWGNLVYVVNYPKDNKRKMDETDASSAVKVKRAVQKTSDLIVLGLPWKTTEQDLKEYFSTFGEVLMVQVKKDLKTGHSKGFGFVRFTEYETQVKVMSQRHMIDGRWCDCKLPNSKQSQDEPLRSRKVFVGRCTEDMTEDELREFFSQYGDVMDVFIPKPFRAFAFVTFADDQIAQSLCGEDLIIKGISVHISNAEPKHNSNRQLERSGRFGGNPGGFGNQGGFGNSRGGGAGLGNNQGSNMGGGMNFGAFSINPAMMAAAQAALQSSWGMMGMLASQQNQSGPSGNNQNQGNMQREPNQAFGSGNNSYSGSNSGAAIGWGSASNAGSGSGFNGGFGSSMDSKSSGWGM

| binding result | Binder |
| --- | --- |
| no binding | MYCL20H-14H1-14K2 (scFv, Intrabody: VL-20 aa linker-VH-GSG-MYC tag) scFv: MAIVMTQTPSSKSVPVGGSVTINCQASESVYSNNRLSWYQQKPGQPPKLLIYYASTLESGVPSRFKGSGFGTHFTLTISGAQCDDAATYYCAGWRGARTDGVDFGGGTEVVVKGSTGGGGSGKPGSGEGGGGSQEQLEESGGDLVKPEGSLTLTCTASGFSFSSNYVMCWVRQAPGKGLEWVACIWFAGIVDTTYYATWAKGRFTISKTSSTTVTLQMTSLTAADTATYFCARNPVGSVNLWGQGTLVTVSSGSGEQKLISEEDL |
| no binding | YPTL-2F7 (scFv) scFv: MDVKLVESGGGLVKLGGSLKLSCAASGFTFSSYYMSWVRQTPEKRLELVATINSNGGSTYYPDTVKGRITISRDNAKNTLQLQMSSLRSEDTALYYCVRQNYEGAYWGQGTLVTVSAGGGGSGGGGSGGGGSDVLMTQTPLSLPVTLGDQASISCRSSQSIVHSNGNTYLEWYLQKPGQSPKLLIYKVSNRFSGVPDRFSGSGSGTDFTLKISRVEAEDLGVYYCFQSSHVPWTFGGGTKLEIKDYKDDDDKRWRKSHSSSYTPLSGSTYPEGRH |
| no binding | YPTL-14H1-14K2 (scFv) scFv: MQEQLEESGGDLVKPEGSLTLTCTASGFSFSSNYVMCWVRQAPGKGLEWVACIWFAGIVDTTYYATWAKGRFTISKTSSTTVTLQMTSLTAADTATYFCARNPVGSVNLWGQGTLVTVSSGGGGSGGGGSGGGGSVMTQTPSSKSVPVGGSVTINCQASESVYSNNRLSWYQQKPGQPPKLLIYYASTLESGVPSRFKGSGFGTHFTLTISGAQCDDAATYYCAGWRGARTDGVDFGGGTEVVVKDYKDDDDKRWRKSHSSSYTPLSGSTYPEGRH |
